According to paper PMC9177416, “Discovery of non-squalene triterpenes” (Nature, 2022):

Target: the molecule itself
Assay: cryo-EM structure; non-cross-linked full-length MpMS, unliganded, 50 uM in 20 mM HEPES pH 7.5, 150 mM NaCl, 1 mM DTT; only the PT domain reconstructed; map resolution 3.17 Å

B1: Macrophomina phaseolina macrophomene synthase (enzyme, Macrophomina phaseolina MS6, UniProt K2SUY0 1-698, looked up)
chain: MCNTKCYNTLAKMTVITEPAMEYMYSVPLDESEYDKCGFCQDPRYRPRRHKDQHLARAGSAKAKELCEALIGVYPRPTCESAVGHSIALVMPECMPGRVEAMGEFMESIFYMDNIAESGSQQDTGNLGTEWANDMETGPTTSVNSNTGAKQVMAKLALQLLSIDPVCAGNVMKAWKEWAAGFAKPRRFDSIEQYIDYRLVDSGAIVAVHLMNFGMGLDISVEELREVSDIVNHAGKALSYQNDFFSFNYEHDMFVKLPDSIGIANAVFVLAETEGLSLAEAKERVKELAKEHEDAVLRLKDEVESKVSYKLRICLEGLVDMVVGNLVWSASCDRYSSYRREKHQMELPIRIQGPPTPPQEPVYEKATLPNGKQLDAPTESSGKDLSDGVATLSGDEPVLGDEIVSAPIKYLESLPSKGFREAIIDGMNGWLNLPARSVSIIKDVVKHIHTASLLCDDIEDSSPLRRGQPSAHIIFGVSQTVNSTSYLWTLAIDRLSELSSPKSLRIFIDEVRKMQIGQSFDLHWTAALQCPSEEEYLSMIDMKTGGLFHLLIRLMIAESPRKVDMDFSGLVSMTGRYFQIRDDLSNLTSEEYENQKGYCEDLDEGKYSLPLIHALKHTKNKVQLESLLIQRKTQGGMTLEMKRLAIQIMKEAGSLEHTRKVVLELQDAVHRELAKLEEAFGQENYVIQLALERLRIKA
notes: codon-optimized synthetic gene cloned NdeI/EcoRI into pET28a (pRC088); Used without cross-linking in one cryo-EM sample and cross-linked with 0.06% glutaraldehyde in another; Only the PT domain (plus one TC helix in the cross-linked sample) could be modelled; also called MpMS; MPH_02178; source: E. coli BL21(DE3), purified (Ni-NTA, Resource Q anion exchange, Superose 6 size exclusion)
In the case of B1, the “stoichiometry N” value is reported as 6.
